Laboratory results reported in paper PMC3274613 (Bioorganic & medicinal chemistry letters, 2012).
Bridge positions count the residues as written; N and C are the ends. Square brackets hold non-standard residues; d marks the D form. Peptide text beside a SMILES is read from it.

Experiments:
[1] = molecular target: MC1 receptor; details: read-out: MC1 receptor binding affinity; M21 melanoma cells; cited from earlier work
[2] = system: αvβ3 integrin receptor; details: relative to RGD-Lys-(Arg11)CCMSH; cited from earlier work
[3] = system: B16/F1 melanoma cells; test: Cellular internalization in B16/F1 melanoma cells; format: cell-based, murine
[4] = in vivo; design: species or system mice; details: C57, mouse, iv, total radioactivity
[5] = system: B16/F1 melanoma-bearing C57 mice; test: in vivo; details: C57, mouse, iv, 2 h
[6] = mouse, in vivo
[7] = system: B16/F1 melanoma-bearing C57 mouse; test: SPECT/CT melanoma imaging; format: in vivo; details: 2 h post-injection, approximately 6.7 MBq, one mouse
[8] = 0.037 MBq, Uptake ratio Tumor/Lung

## CC(C)[C@H](NC(=O)[C@@H]1CCCN1C(=O)[C@H](CCCNC(=N)N)NC(=O)[C@H](CS)NC(=O)[C@H](Cc1c[nH]c2ccccc12)NC(=O)[C@H](CCCNC(=N)N)NC(=O)[C@@H](Cc1ccccc1)NC(=O)[C@H](Cc1c[nH]cn1)NC(=O)[C@H](CCC(=O)O)NC(=O)[C@H](CS)NC(=O)[C@H](CS)NC(=O)[C@H](CCCCN)NC(=O)[C@@H]1CC(=O)N[C@@H](CCCNC(=N)N)C(=O)N[C@@H](C)C(=O)N[C@@H](CC(=O)O)C(=O)N[C@H](Cc2ccc(O)cc2)C(=O)N1)C(N)=O [RAD-Lys-(Arg^11)CCMSH] (RAD[dY]DKCCEH[dF]RWCRPV-NH2; lactam N-5; C-terminus assumed)
[1]
  IC50: 0.3 nM
[2]
  Decrease of αvβ3 integrin receptor binding affinity on switch from RGD to RAD: 248 fold

## CC(C)[C@H](NC(=O)[C@@H]1CCCN1C(=O)[C@H](CCCNC(=N)N)NC(=O)[C@H](CS)NC(=O)[C@H](Cc1c[nH]c2ccccc12)NC(=O)[C@H](CCCNC(=N)N)NC(=O)[C@@H](Cc1ccccc1)NC(=O)[C@H](Cc1c[nH]cn1)NC(=O)[C@H](CCC(=O)O)NC(=O)[C@H](CS)NC(=O)[C@H](CS)NC(=O)[C@H](CCCCN)NC(=O)[C@@H]1CC(=O)N[C@@H](CCCNC(=N)N)C(=O)N[C@@H](C)C(=O)N[C@@H](CC(=O)O)C(=O)N[C@H](Cc2ccc(O)cc2)C(=O)N1)C(N)=O [^99mTc-RAD-Lys-(Arg^11)CCMSH, metal not drawn] (RAD[dY]DKCCEH[dF]RWCRPV-NH2; lactam N-5; C-terminus assumed)
[3]; 20 min post incubation
  Activity internalized: 59.20 ± 5.10%
[3]; after 2 h incubation
  Activity internalized: 78.24 ± 1.13%
[4]; [8]
  tissue to tissue ratio at 0.5 h: 4.26
  tissue to tissue ratio at 2 h: 22.9
  tissue to tissue ratio at 4 h: 39.1
  tissue to tissue ratio at 24 h: 31.9
[4]; Bladder, percent injected dose
  tissue uptake dose at 2 h: 69.54 ± 0.63 %ID
[5]
  Bladder, percent injected dose: 70.34 ± 3.28 %ID
  Blood, percent injected dose/gram: 0.44 ± 0.11 %ID/g
  Bone, percent injected dose/gram: 0.52 ± 0.31 %ID/g
  Heart, percent injected dose/gram: 0.30 ± 0.10 %ID/g
  Kidneys, percent injected dose/gram: 50.10 ± 18.56 %ID/g
  Lung, percent injected dose/gram: 0.78 ± 0.17 %ID/g
  Muscle, percent injected dose/gram: 0.28 ± 0.30 %ID/g
  Spleen, percent injected dose/gram: 0.50 ± 0.09 %ID/g
  Stomach, percent injected dose/gram: 1.92 ± 0.24 %ID/g
[6]
  Transformed to a more lipophilic metabolite in urine: 18%
[7]
  Visualization of flank melanoma tumors by SPECT/CT: visualized clearly
